Reference: patent US20130004505A1 (CELLTRION, published 2013)
Numbering of substitutions follows the chain as printed.

What was measured:
Assay in all cases: cell-based or functional assay
[1] = biological target: T1, HA of influenza A virus H1N1 A/Texas/05/2009-RG15 (pandemic), on virus (influenza A virus H1N1 …)
[2] = biological target: T2, HA of influenza A virus H1N1 A/New York/18/2009-RG18 (pandemic), on virus (influenza A virus H1N1 (A/New …))
[3] = biological target: T1, HA of influenza A virus H1N1 …; remark: listed apart in the source
[4] = biological target: T2, HA of influenza A virus H1N1 A/New …; remark: listed apart in the source
[5] = biological target: T1, HA of influenza A virus H1N1 …; remark: listed apart in the source
[6] = biological target: T2, HA of influenza A virus H1N1 A/New …; remark: listed apart in the source
[7] = biological target: HA of influenza A virus H1N1 A/Ohio/83 (seasonal), on virus (influenza A virus H1N1 (A/Ohio/83))
[8] = biological target: HA of influenza A virus H5N1 A/Vietnam/1203/04, on virus (influenza A virus H5N1 …)
[9] = biological target: HA of influenza A virus H5N1 A/Anhui/1/05, on virus (influenza A virus H5N1 (A/Anhui/1/05))
[10] = biological target: HA of influenza A virus H1N1 A/Solomon Islands/3/2006 (seasonal), on virus (influenza A virus H1N1 (A/Solomon …))
[11] = biological target: HA of influenza A virus H3N2 A/Wisconsin/67/2005, on virus (influenza A virus H3N2 …)
[12] = biological target: HA of influenza A virus H2N2 A/Ann Arbor/6/60 ca, on virus (influenza A virus H2N2 (A/Ann …))

B1: CT104 antibody (antibody, V domains shown)
VH: QVQLVQSGAEVKKPGSSVKVSCKASGGTLNNYAISWVRQAPGQGLEWMGGISPIFGTLNYAERFQGRVTITADVFTNTVYMELSSLRSEDTAVYFCARGCGYNCYYFDGWGQGTLVTVSS
VL: EIVLTQSPGTLSLSPGERATLSCRASQSLSSSSLVWYQQKPGQAPRLLIYGASSRATGIPDRFSGSGSGTDFTLTISRLEPEDFAVYYCQQYGNSPYTFGQGTQVEIKR
Q: Which “Hemagglutination-inhibition test: hemagglutination inhibition end point” value (shortened to “Hemagglutination-inhibition test”) [1] does the source give for B1 here?
A: > 20 µg/mL

Q: What about the “Hemagglutination-inhibition test” value [2] of the same binder?
A: > 20 µg/mL

Q: And the “Antibody concentration* (neutralizing antibody concentration)” value (“Antibody concentration*” below) [3]?
A: 0.313 µg/mL

Q: And the “IC50 of neutralizing activity” value [3]?
A: 0.29 µg/mL

Q: What about the “Antibody concentration*” value [4] of the same binder?
A: 1.25 µg/mL

Q: And the “IC50 of neutralizing activity” value [4]?
A: 0.56 µg/mL

Q: What about the “MN assay: lowest antibody concentration at which no virus antigen was detected” value [5] of the same binder?
A: 0.313 µg/mL

Q: What about the “MN assay: lowest antibody concentration at which no virus antigen was detected” value [6] of the same binder?
A: 0.625 µg/mL

Q: And the “MN assay: lowest antibody concentration at which no virus antigen was detected” value [7]?
A: 0.313 µg/mL

Q: And the “MN assay: lowest antibody concentration at which no virus antigen was detected” value [8]?
A: 1.25 µg/mL

Q: And the “MN assay: lowest antibody concentration at which no virus antigen was detected” value [9]?
A: 0.625 µg/mL

Q: And the “MN assay: lowest antibody concentration at which no virus antigen was detected” value [10]?
A: 0.625 µg/mL

Q: And the “MN assay: lowest antibody concentration at which no virus antigen was detected” value [11]?
A: > 10 µg/mL

Q: And the “MN assay: lowest antibody concentration at which no virus antigen was detected” value [12]?
A: > 10 µg/mL

B2: CT123 antibody (antibody, V domains shown)
VH: QVQLVESGGGVVQPGRSLRLSCAASGFTFSRFGIHWVRQAPGKGLEWMAVIWYDGSNKFYADSVKGRFTISRDNSKNTVYLQMNSLRAEDTAVYYCAKDSRGYCSSIICFEGGLDNWGQGTLVTVSS
VL: B1 VL with I2T, L29V, S31I, S33Y, V35A, Q39R, S54R, N94S, Q104K, V105L
Q: Which results are given for B2?
A: Hemagglutination-inhibition test: hemagglutination inhibition end point [1]: > 20 µg/mL; Hemagglutination-inhibition test: hemagglutination inhibition end point [2]: > 20 µg/mL; Antibody concentration* (neutralizing antibody concentration) [3]: 0.625 µg/mL; IC50 of neutralizing activity [3]: 0.068 µg/mL; Antibody concentration* (neutralizing antibody concentration) [4]: 1.25 µg/mL; IC50 of neutralizing activity [4]: 0.29 µg/mL; MN assay: lowest antibody concentration at which no virus antigen was detected [5]: 0.313 µg/mL; MN assay: lowest antibody concentration at which no virus antigen was detected [6]: 0.625 µg/mL; MN assay: lowest antibody concentration at which no virus antigen was detected [7]: 0.313 µg/mL; MN assay: lowest antibody concentration at which no virus antigen was detected [8]: > 10 µg/mL; MN assay: lowest antibody concentration at which no virus antigen was detected [9]: > 10 µg/mL; MN assay: lowest antibody concentration at which no virus antigen was detected [10]: 1.25 µg/mL; MN assay: lowest antibody concentration at which no virus antigen was detected [11]: > 10 µg/mL; MN assay: lowest antibody concentration at which no virus antigen was detected [12]: > 10 µg/mL

B3: CT120 antibody (antibody, V domains shown)
VH: QVQLVQSGAEVKMPGSSVKVSCKTSGVFFSSHAISWVRQAPGQGLEWMGGISPMFGTTHYAQKFQGRVTITADQSTTTAYMELTSLTSEDTAVYYCARDGAGSYYPLNWFDPWGQGTLVTVSS
VL: EIVLTQSPATLSLSPGERATLSCRASENIWNNLAWYQQKPGQAPRLLISGASTGATGVPSRFRGSGSRTEFTLTISSLQSEDFAIYFCQQYNSWPRTFGPGTKVEIKR
Q: B3 was tested. Which “Hemagglutination-inhibition test” value [1] did it give?
A: > 20 µg/mL

Q: And the “Hemagglutination-inhibition test” value [2]?
A: > 20 µg/mL

Q: What about the “Antibody concentration*” value [3] of the same binder?
A: 0.156 µg/mL

Q: What about the “IC50 of neutralizing activity” value [3] of the same binder?
A: 0.15 µg/mL

Q: And the “Antibody concentration*” value [4]?
A: 0.313 µg/mL

Q: And the “IC50 of neutralizing activity” value [4]?
A: 0.31 µg/mL

Q: And the “MN assay: lowest antibody concentration at which no virus antigen was detected” value [5]?
A: 0.313 µg/mL

Q: What about the “MN assay: lowest antibody concentration at which no virus antigen was detected” value [6] of the same binder?
A: 0.313 µg/mL

Q: What about the “MN assay: lowest antibody concentration at which no virus antigen was detected” value [7] of the same binder?
A: 0.156 µg/mL

Q: And the “MN assay: lowest antibody concentration at which no virus antigen was detected” value [8]?
A: 1.25 µg/mL

Q: What about the “MN assay: lowest antibody concentration at which no virus antigen was detected” value [9] of the same binder?
A: 0.625 µg/mL

Q: What about the “MN assay: lowest antibody concentration at which no virus antigen was detected” value [10] of the same binder?
A: 0.625 µg/mL

Q: And the “MN assay: lowest antibody concentration at which no virus antigen was detected” value [11]?
A: > 10 µg/mL

Q: What about the “MN assay: lowest antibody concentration at which no virus antigen was detected” value [12] of the same binder?
A: 2.5 µg/mL
